According to patent publication US20200297837A1:
Like-named read-outs stand apart in the source and are kept apart here.

Assays:
[1] = target: T1, HLA-E*01033 on the HLA-E*01033-transfected derivative of the K562 cell line (human), P13747; assay: HLA-E stabilization assay on K562/HLA-E cells, overnight 26 C, anti-HLA-E mAb staining, flow cytometry (without peptide: 1400)
[2] = target: T1, HLA-E*01033 on the …

| Binder | MFI [1] [MFI] | MFI [2] [MFI] |
| --- | --- | --- |
| RMYSPVSIL (modifications not checked) [HIV-1 Gag derived peptide … (SEQ ID NO: 1)] | 8240 | – |
| VMATRRNVL (modifications not checked) [MBt derived peptide … (SEQ ID NO: 15)] | – | 7520 |
| TALSEGATP (modifications not checked) [HIV-1 Gag derived peptide … (SEQ ID NO: 3)] | 8530 | – |
| RIRTWKSLV (modifications not checked) [HIV-1 Pol derived peptide … (SEQ ID NO: 17)] | 6580 | – |
| PEIVIYDYM (modifications not checked) [HIV-1 Pol derived peptide … (SEQ ID NO: 16)] | – | 7320 |
